Source: paper doi:10.1101/2020.02.18.953257

Target: human Replication Factor C (hRFC) with RFC1ΔN555 (human) (UniProt P35251)

- apparent Kd from hRFC ATPase activity as a function of PCNA concentration: 120 nM
Substance: S228I-PCNA (from UniProt P12004 1-261) (natural protein)
